Among the data in the supplement of paper PMC5998384 are thermal stability score values, retold here.

In the data set the test system is HeLa Kyoto. The data set can be described thus: thermal stability score vs G1/S (z-score of summed log2 fold changes over temperatures); higher = more thermally stable than in G1/S.
Setting [1] is: cell cycle stage: early G1 (4.5 h after nocodazole release).
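Further: synchronized HeLa Kyoto cells, proteins quantified by TMT10plex mass spectrometry, three biological replicates, mitosis taken 0.5 h after nocodazole release, G1/S directly after double thymidine block.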

Take “MAAGLRKRGRSGSAAQAEGLCKQWLQRAWQERRLLLREPRYTLLVAACLCLAEVGITFWVIHRVAYTEIDWKAYMAEVEGVINGTYDYTQLQGDTGPLVYPAGFVYIFMGLYYATSRGTDIRMAQNIFAVLYLATLLLVFLIYHQTCKVPPFVFFFMCCASYRVHSIFVLRLFNDPVAMVLLFLSINLLLAQRWGWGCCFFSLAVSVKMNVLLFAPGLLFLLLTQFGFRGALPKLGICAGLQVVLGLPFLLENPSGYLSRSFDLGRQFLFHWTVNWRFLPEALFLHRAFHLALLTAHLTLLLLFALCRWHRTGESILSLLRDPSKRKVPPQPLTPNQIVSTLFTSNFIGICFSRSLHYQFYVWYFHTLPYLLWAMPARWLTHLLRLLVLGLIELSWNTYPSTSCSSAALHICHAVILLQLWLGPQPFPKSTQHSKKAH [ALG3]”: the thermal stability score came to 1.41 under setting [1] and 2.38 (cell cycle stage: mitosis).
In the case of “MAALEKMTFPKKMTFPEKPSHKKYRAALKKEKRKKRRQELARLRDSGLSQEEEEDTFIEEQQLEEEKLLERERERLHEEWLLREQKAQEEFRIKKEKEEAAKKWLEEQERKLKEQWKEQQRKEREEEEQKQQEKKEKEEAVQKMLDQAENDLENSTTWQNPEPPVDFRVMEKDRANCPFYSKTGACRFGDRCSRKHNFPTSSPTLLIKSMFTTFGMEQCRRDDYDPDASLEYSEEETYQQFLDFYEDVLPEFKNVGKVIQFKVSCNLEPHLRGNVYVQYQSEEECQAALSLFNGRWYAGRQLQCEFCPVTRWKMAICGLFEIQQCPRGKHCNFLHVFRNPNNEFWEANRDIYLSSDQTGSSFGKNSERREKMGHHDHYYSRQRGRRNPSPDHTYKRNGESERKKSSHRGKKSHKRTSKSRERHNSPSRGRNRHRSWDQGRRSQSRRSHRSRSQSSSRCRSRGRRKSGNRDRTVQSPQSK [ZRSR1]”, the thermal stability score by setting is: under setting [1], 1.06e-17; (cell cycle stage: mitosis) 1.37e-17.
For “MAEQVLPQALYLSNMRKAVKIRERTPEDIFKPTNGIIHHFKTMHRYTLEMFRTCQFCPQFREIIHKALIDRNIQATLESQKKLNWCREVRKLVALKTNGDGNCLMHATSQYMWGVQDTDLVLRKALFSTLKETDTRNFKFRWQLESLKSQEFVETGLCYDTRNWNDEWDNLIKMASTDTPMARSGLQYNSLEEIHIFVLCNILRRPIIVISDKMLRSLESGSNFAPLKVGGIYLPLHWPAQECYRYPIVLGYDSHHFVPLVTLKDSGPEIRAVPLVNRDRGRFEDLKVHFLTDPENEMKEKLLKEYLMVIEIPVQGWDHGTTHLINAAKLDEANLPKEINLVDDYFELVQHEYKKWQENSEQGRREGHAQNPMEPSVPQLSLMDVKCETPNCPFFMSVNTQPLCHECSERRQKNQNKLPKLNSKPGPEGLPGMALGASRGEAYEPLAWNPEESTGGPHSAPPTAPSPFLFSETTAMKCRSPGCPFTLNVQHNGFCERCHNARQLHASHAPDHTRHLDPGKCQACLQDVTRTFNGICSTCFKRTTAEASSSLSTSLPPSCHQRSKSDPSRLVRSPSPHSCHRAGNDAPAGCLSQAARTPGDRTGTSKCRKAGCVYFGTPENKGFCTLCFIEYRENKHFAAASGKVSPTASRFQNTIPCLGRECGTLGSTMFEGYCQKCFIEAQNQRFHEAKRTEEQLRSSQRRDVPRTTQSTSRPKCARASCKNILACRSEELCMECQHPNQRMGPGAHRGEPAPEDPPKQRCRAPACDHFGNAKCNGYCNECFQFKQMYG [TNFAIP3]”, the thermal stability score is 0.262 under setting [1] and -0.606 (cell cycle stage: mitosis).
With “MAGLKRRVPLHSLRYFISMVGLFSKPGLLPWYARNPPGWSQLFLGTVCKGDFTRVIATKCQKGQKSQKKPSHLGPLDGSWQERLADVVTPLWRLSYEEQLKVKFAAQKKILQRLESYIQMLNGVSVTTAVPKSERLSCLLHPIIPSPVINGYRNKSTFSVNRGPDGNPKTVGFYLGTWRDGNVVCVQSNHLKNIPEKHSQVAQYYEVFLRQSPLEPCLVFHEGGYWRELTVRTNSQGHTMAIITFHPQKLSQEELHVQKEIVKEFFIRGPGAACGLTSLYFQESTMTRCSHQQSPYQLLFGEPYIFEELLSLKIRISPDAFFQINTAGAEMLYRTVGELTGVNSDTILLDICCGTGVIGLSLAQHTSRVLGIELLEQAVEDARWTAAFNGITNSEFHTGQAEKILPGLLKSKEDGQSIVAVVNPARAGLHYKVIQAIRNFRAIHTLVFVSCKLHGESTRNVIELCCPPDPAKKLLGEPFVLQQAVPVDLFPHTPHCELVLLFTR [TRMT2B]”, the thermal stability score reads like this: under setting [1], 0.356; (cell cycle stage: mitosis) 1.27.
As for “MAPLRPLLILALLAWVALADQESCKGRCTEGFNVDKKCQCDELCSYYQSCCTDYTAECKPQVTRGDVFTMPEDEYTVYDDGEEKNNATVHEQVGGPSLTSDLQAQSKGNPEQTPVLKPEEEAPAPEVGASKPEGIDSRPETLHPGRPQPPAEEELCSGKPFDAFTDLKNGSLFAFRGQYCYELDEKAVRPGYPKLIRDVWGIEGPIDAAFTRINCQGKTYLFKGSQYWRFEDGVLDPDYPRNISDGFDGIPDNVDAALALPAHSYSGRERVYFFKGKQYWEYQFQHQPSQEECEGSSLSAVFEHFAMMQRDSWEDIFELLFWGRTSAGTRQPQFISRDWHGVPGQVDAAMAGRIYISGMAPRPSLAKKQRFRHRNRKGYRSQRGHSRGRNQNSRRPSRATWLSLFSSEESNLGANNYDDYRMDWLVPATCEPIQSVFFFSGDKYYRVNLRTRRVDTVDPPYPRSIAQYWLGCPAPGHL [VTN]”, the thermal stability score under setting [1] came to 2.31 and the thermal stability score (cell cycle stage: mitosis) was -1.24.
The matching figures for “MASAVFEGTSLVNMFVRGCWVNGIRRLIVSRRGDEEEFFEIRTEWSDRSVLYLHRSLADLGRLWQRLRDAFPEDRSELAQGPLRQGLVAIKEAHDIETRLNEVEKLLKTIISMPCKYSRSEVVLTFFERSPLDQVLKNDNVHKIQPSFQSPVKISEIMRSNGFCLANTETIVIDHSIPNGRDQQLGVDPTEHLFENGSEFPSELEDGDDPAAYVTNLSYYHLVPFETDIWD [PXDC1]”: -0.022 and 0.549.
Take “MDPETRGQEIIKVTPLQQMLASCTGAILTSVIVTPLDVVKIRLQAQNNPLPKGKCFVYSNGLMDHLCVCEEGGNKLWYKKPGNFQGTLDAFFKIIRNEGIKSLWSGLPPTLVMAVPATVIYFTCYDQLSALLRSKLGENETCIPIVAGIVARFGAVTVISPLELIRTKMQSKKFSYVELHRFVSKKVSEDGWISLWRGWAPTVLRDVPFSAMYWYNYEILKKWLCEKSGLYEPTFMINFTSGALSGSFAAVATLPFDVVKTQKQTQLWTYESHKISMPLHMSTWIIMKNIVAKNGFSGLFSGLIPRLIKIAPACAIMISTYEFGKAFFQKQNVRRQQY [SLC25A40]”: the thermal stability score is -1.32 under setting [1] and -2.29 (cell cycle stage: mitosis).
Consider “MEPGEVKDRILENISLSVKKLQSYFAACEDEIPAIRNHDKVLQRLCEHLDHALLYGLQDLSSGYWVLVVHFTRREAIKQIEVLQHVATNLGRSRAWLYLALNENSLESYLRLFQENLGLLHKYYVKNALVCSHDHLTLFLTLVSGLEFIRFELDLDAPYLDLAPYMPDYYKPQYLLDFEDRLPSSVHGSDSLSLNSFNSVTSTNLEWDDSAIAPSSEDYDFGDVFPAVPSVPSTDWEDGDLTDTVSGPRSTASDLTSSKASTRSPTQRQNPFNEEPAETVSSSDTTPVHTTSQEKEEAQALDPPDACTELEVIRVTKKKKIGKKKKSRSDEEASPLHPACSQKKCAKQGDGDSRNGSPSLGRDSPDTMLASPQEEGEGPSSTTESSERSEPGLLIPEMKDTSMERLGQPLSKVIDQLNGQLDPSTWCSRAEPPDQSFRTGSPGDAPERPPLCDFSEGLSAPMDFYRFTVESPSTVTSGGGHHDPAGLGQPLHVPSSPEAAGQEEEGGGGEGQTPRPLEDTTREAQELEAQLSLVREGPVSEPEPGTQEVLCQLKRDQPSPCLSSAEDSGVDEGQGSPSEMVHSSEFRVDNNHLLLLMIHVFRENEEQLFKMIRMSTGHMEGNLQLLYVLLTDCYVYLLRKGATEKPYLVEEAVSYNELDYVSVGLDQQTVKLVCTNRRKQFLLDTADVALAEFFLASLKSAMIKGCREPPYPSILTDATMEKLALAKFVAQESKCEASAVTVRFYGLVHWEDPTDESLGPTPCHCSPPEGTITKEGMLHYKAGTSYLGKEHWKTCFVVLSNGILYQYPDRTDVIPLLSVNMGGEQCGGCRRANTTDRPHAFQVILSDRPCLELSAESEAEMAEWMQHLCQAVSKGVIPQGVAPSPCIPCCLVLTDDRLFTCHEDCQTSFFRSLGTAKLGDISAVSTEPGKEYCVLEFSQDSQQLLPPWVIYLSCTSELDRLLSALNSGWKTIYQVDLPHTAIQEASNKKKFEDALSLIHSAWQRSDSLCRGRASRDPWC [PLEKHM2]”, for which the thermal stability score reads like this: under setting [1], -1.92; (cell cycle stage: mitosis) -1.58.
